Experimental data: publication doi:10.1101/2022.11.10.515958 (bioRxiv, 2022)

Molecular target: T1, GST-Whi7 (S. cerevisiae, UniProt P36167 1-246)
T1 sequence (looked up): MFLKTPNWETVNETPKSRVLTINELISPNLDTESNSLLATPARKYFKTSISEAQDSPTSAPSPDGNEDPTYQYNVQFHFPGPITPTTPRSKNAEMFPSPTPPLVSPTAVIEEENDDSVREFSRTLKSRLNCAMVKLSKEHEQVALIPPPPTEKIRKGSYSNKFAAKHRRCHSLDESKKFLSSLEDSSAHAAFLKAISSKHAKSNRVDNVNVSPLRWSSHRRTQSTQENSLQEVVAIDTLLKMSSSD
Experiment: pull-down

B1: Cks1-ALFA (natural protein, S. cerevisiae, UniProt P20486 1-150, looked up)
chain: MYHHYHAFQGRKLTDQERARVLEFQDSIHYSPRYSDDNYEYRHVMLPKAMLKVIPSDYFNSEVGTLRILTEDEWRGLGITQSLGWEHYECHAPEPHILLFKRPLNYEAELRAATAAAQQQQQQQQQQQQQQQQHQTQSISNDMQVPPQIS
- binding result: binds
